# Starred links: 1 amine or outer side, 2 acyl side, 3 side chain; linkers in the order of their positions; H or OH if unused. Positions of bridges follow the written chain, without caps; N, C: chain ends. Non-standard residues stand in square brackets, D forms with d. Residues, ends and D or L forms follow the SMILES beside them. Groups on a side chain read outwards from the residue. Primed or numbered codes have the meaning given here. ξ: configuration not given here. *: point of attachment. 2Peg11′ = —[C(O)—CH2—CH2—(OCH2CH2)12—NH]— (PEG12 unit); PEG12 = NCCOCCOCCOCCOCCOCCOCCOCCOCCOCCOCCOCCOCCC(=O)O; X11 = NCCCC[C@@H](N[*:2])C(=O)C[C@@H](CS[*:1])C(N)=O; C18 diacid = O=C(O)CCCCCCCCCCCCCCCCC(=O)*; Dip = N[C@H](C(=O)O)C(c1ccccc1)c1ccccc1; X10 = CCC(=O)CC[C@H](N[*:1])C(=O)[*:2]; γGlu = O=C(O)[C@H](CCC(=O)[*:2])N[*:1]; X9 = O=C([C@@H](N[*:1])SC[*:3])[*:2]; Palmitoyl = CCCCCCCCCCCCCCCC(=O)*; β3hF = N[C@H](CC(=O)O)Cc1ccccc1; Aic = NC1(C(=O)O)Cc2ccccc2C1; hLeu = CC(C)CC[C@H](N)C(=O)O; ξIle = CC[C@H](C)C(N)C(=O)O; Isovaleryl = CC(C)CC(=O)*; Dap = NC[C@H](N)C(=O)O; AEEA = NCCOCCOCC(=O)O; Npc = nipecotic acid; Ahx = NCCCCCC(=O)O
# T1: human ferroportin (SLC40A1) fused in frame with GFP, stably expressed in HEK293 cells (human, UniProt Q9NP59 1-571)
# T1 sequence (looked up): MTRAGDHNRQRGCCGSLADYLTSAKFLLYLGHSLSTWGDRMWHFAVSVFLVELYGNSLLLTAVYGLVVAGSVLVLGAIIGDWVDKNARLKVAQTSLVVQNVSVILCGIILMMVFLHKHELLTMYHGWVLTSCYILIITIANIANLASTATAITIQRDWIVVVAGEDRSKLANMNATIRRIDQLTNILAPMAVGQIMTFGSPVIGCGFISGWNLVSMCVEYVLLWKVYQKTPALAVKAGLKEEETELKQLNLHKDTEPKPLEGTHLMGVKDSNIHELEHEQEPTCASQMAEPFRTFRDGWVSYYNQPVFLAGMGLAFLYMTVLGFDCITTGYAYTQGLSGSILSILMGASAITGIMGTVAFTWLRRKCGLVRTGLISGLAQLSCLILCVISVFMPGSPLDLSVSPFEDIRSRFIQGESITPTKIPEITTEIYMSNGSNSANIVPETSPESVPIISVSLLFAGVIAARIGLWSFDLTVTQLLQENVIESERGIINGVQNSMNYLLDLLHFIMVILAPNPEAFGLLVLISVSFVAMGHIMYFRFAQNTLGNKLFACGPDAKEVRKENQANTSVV
# T2: ferroportin endogenously expressed on T47D human breast carcinoma cells (human, UniProt Q9NP59 1-571)
# T2 sequence (looked up): T1 sequence (looked up)
# T3: human ferroportin (Homo sapiens, UniProt Q9NP59)
# T3 construct: expressed in transfected cells
# T3 sequence (Q9NP59 1-571): T1 sequence (looked up)
# B1: Compound 12 (peptide)
# peptide: XETHXPCIXXXC
# modifications: Isovaleric Acid-E-T-H-[Dpa]-P-[Cys]-I-[Lys(1Peg2_1Peg2_Ahx_C18_Diacid)]-[bhPhe]-[(D)Lys]-[Cys]-NH2
# B2: Compound 123 (peptide)
# peptide: XETHXPCIXXXCX
# modifications: Isovaleric Acid-E-T-H-[Dpa]-P-[Cys]-I-[Lys(Ac)]-[bhPhe]-[(D)Lys(Ac)]-[Cys]-[(D)Glu]-NH2
# B3: Compound 113 (peptide)
# peptide: XETHXPCIXXXC
# modifications: Isovaleric Acid-E-T-H-[Dpa]-P-[Cys]-I-[Lys(2Peg11′_C18_Diacid)]-[bhPhe]-[(D)Lys]-[Cys]-NH2
# B4: Compound 2 (peptide)
# peptide: XETHXPCIXXXXC
# modifications: Isovaleric Acid-E-T-H-[Dpa]-P-[Cys]-I-[(D)Lys]-[Dpa]-[Lys(2Peg11′_Palm)]-[(D)Lys]-[Cys]-NH2
# B5: Compound 99 (peptide)
# peptide: XETHXPCIXXXC
# modifications: [C18_diacid_Ahx_PEG2_PEG2]-E-T-H-[Dpa]-P-[Cys]-I-[(D)Lys]-[bhPhe]-[(D)Lys]-[Cys]-NH2
# B6: Compound 98 (peptide)
# peptide: XETHXPCIXXXC
# modifications: not fully specified; [Diacid_C18_isoGlu_PEG2_PEG2]-E-T-H-[Dpa]-P-[Cys]-I-[(D)Lys]-[bhPhe]-[(D)Lys]-[Cys]-NH2
# B7: Compound 202 (peptide)
# peptide: XETXXPCIXXXC
# modifications: Isovaleric Acid-E-T-[His_1Me]-[Dpa]-P-C-I-[Lys(PEG12_Palm)]-[bhPhe]-[(D)Lys]-C-NH2
# B8: Compound 6 (peptide)
# peptide: XETHXPCIXXXXC
# modifications: Isovaleric Acid-E-T-H-[Dpa]-P-[Cys]-I-[(D)Lys]-[bhPhe]-[Lys(Ahx_Palm)]-[(D)Lys]-[Cys]-NH2
# B9: Compound 256 (peptide)
# peptide: XETHXPCIXXXC
# modifications: not fully specified; Isovaleric Acid-E-T-H-[Dpa]-P-C-I-[Lys(1PEG2_1PEG2_Ahx_C18_Diacid)]-[bhPhe]-[(D)Lys(PEG7_OMe)]-C-NH2
# B10: Compound 19 (peptide)
# peptide: XETHXPCIXXXXC
# modifications: Isovaleric Acid-E-T-H-[Dpa]-P-[Cys]-I-[(D)Lys(2Peg11′_OMe)]-[bhPhe]-[Lys(Ahx_Palm)]-[(D)Lys(2Peg11′_OMe)]-[Cys]-NH2
# B11: Compound 53 (peptide)
# peptide: XETHXPCIXXXC
# modifications: Isovaleric Acid-E-T-H-[(4F)Phe]-P-[Cys]-I-[Lys(2Peg11′_Palm)]-[bhPhe]-[(D)Lys]-[Cys]-NH2
# Molecular target: T1, human ferroportin (SLC40A1) fused in …
# Test: cell-based or functional assay
# Settings: not given
row,FPN EC50 [nM],Molecule
1,9.81,B1
2,103,Isovaleryl-ETH[Dip]PCIK([Ahx-PEG20K])[β3hF]RC-NH2 (disulfide 6-11 (inferred)) [Compound 51]
3,58.2,Isovaleryl-ETH[Dip]PCIK([2Peg11′-Palmitoyl])[β3hF]K(2Peg20K)RC-NH2 (disulfide 6-12 (inferred)) [Compound 47]
4,3.31,Isovaleryl-ETH[Dip]PCIK(2Peg20K)[β3hF]K([PEG12-Palmitoyl])RC-NH2 (disulfide 6-12 (inferred)) [Compound 50]
5,90,B2
6,8.06,B3
7,5,B4
8,> 3000,Isovaleryl-ETH[Dip]PCIK(Ac)[β3hF]K(2Peg20K)RC-NH2 (disulfide 6-12 (inferred)) [Compound 46]
9,2.88,Isovaleryl-ETH[Dip][Npc]CI[dK][β3hF]K([Ahx-Palmitoyl])[dK]C-NH2 (disulfide 6-12 (inferred)) [Compound 5]
10,20,Isovaleryl-ETH[Dip]PCI[dK][β3hF]K([PEG12-Palmitoyl])RC-NH2 (disulfide 6-12 (inferred)) [Compound 27]
11,> 3000,Isovaleryl-ETH[Dip]PCIK(Ac)[β3hF]KRC-NH2 (disulfide 6-12 (inferred)) [Compound 42]
12,> 3000,B5
13,> 3000,B6

# Molecular target: T2, ferroportin endogenously expressed on …
# Test: cell-based or functional assay
# Settings: not given
row,IC50: T47D Internalization MSA [nM],Molecule
1,4.3,B7
2,1.95,B8
3,68.9,B9
4,> 1000,Isovaleryl-ETHFPCIK([γGlu-C18 diacid])FEPRSKGCK-NH2 (not fully specified (bridges); cysteine pairing not given here) [Compound 222]
5,2.56,B10
6,1.3,B11

# Molecular target: T3, human ferroportin
# Test: FPN activity assay: internalization/degradation of ferroportin-GFP in stably transfected HEK293 cells (decrease in GFP fluorescence)
# Assay type: cell-based
# Settings: Table 2A; HEK293 cells expressing human ferroportin-GFP, at least 18 hours incubation
# Description: Following internalization, the ferroportin protein is degraded.
# A retro inverse peptide is a peptide with a reversed sequence in all D amino acids. An example is that Hy-Glu-Thr-His-NH2 becomes Hy-DHis-DThr-DGlu-NH2. The EC50 of these reference compounds for ferroportin internalization/degradation was determined according to the FPN activity assay described above. These peptides served as control standards.
# These values were determined as described herein.
row,EC50 [nM],Molecule
1,103,Isovaleric Acid-E-T-H-[Dpa]-P-[Cys]-I-[Lys(Ahx_PEG20K)]-[bhPhe]-R-[Cys]-NH2 [Compound 51]
2,58.2,Isovaleric Acid-E-T-H-[Dpa]-P-[Cys]-I-[Lys(2Peg11′_Palm)]-[bhPhe]-[Lys(2Peg20K)]-R-[Cys]-NH2 [Compound 47]
3,3.31,Isovaleric Acid-E-T-H-[Dpa]-P-[Cys]-I-[Lys(2Peg20K)]-[bhPhe]-[Lys(2Peg11′_Palm)]-R-[Cys]-NH2 [Compound 50]
4,> 3000,Isovaleric Acid-E-T-H-[Dpa]-P-[Cys]-I-[Lys(Ac)]-[bhPhe]-[Lys(2Peg20K)]-R-[Cys]-NH2 [Compound 46]

# Same assay, conditions: Table 2B; HEK293 cells expressing human ferroportin-GFP, at least 18 hours incubation
row,EC50 [nM],Molecule
1,1360,Isovaleric Acid-E-T-H-[Dpa]-P—C—I-[Lys(1PEG2_1PEG2_Ahx_C18_Diacid)]-[bhPhe]-[(D)Lys(PEG40KB-C—NH2 [Compound 297]
2,1780,Isovaleric Acid-E-T-H-[Dpa]-P—C—I-[Lys(PEG12_Palm)]-[bhPhe]-[Lys(PEG40KB)]-R—C—NH2 [Compound 295]
3,32.6,Isovaleric Acid-E-T-H-[Dpa]-P—C—I-[Lys(Ahx_Palm)]-[bhPhe]-[(D)Lys(PEG20K)]-C—NH2 [Compound 312]
4,357,Isovaleric Acid-E-T-H-[Dpa]-P—C—I-[Lys(1PEG2_1PEG2_Ahx_Palm)]-[bhPhe]-[(D)Lys(PEG20K-C—NH2 [Compound 314]
5,1080,Isovaleric Acid-E-T-H-[Dpa]-P—C—I-[Lys(PEG40KB)]-[bhPhe]-[Lys(PEG12_Palm)]-R—C—NH2 [Compound 296]

# Same assay, conditions: Table 2D (Illustrative Monomer Hepcidin Analogues); ferroportin-GFP HEK293 cells; read-out: IC50: FPN internalisation
row,DC50 [nM],Molecule
1,20.6,CCC(=O)CC[C@H](NC(=O)CC(C)C)C(=O)N[C@H](C(=O)N[C@@H](Cc1cnc[nH]1)C(=O)N[C@H](C(=O)N1CCC[C@H]1C(=O)N[C@H]1CSSC[C@@H](C(N)=O)CC(=O)[C@@H](CCCCN)NC(=O)[C@H](CCC(C)C)NC(=O)[C@H](CCCCNC(=O)COCCOCCNC(=O)COCCOCCNC(=O)[C@H](CN)NC(=O)CCCCCCCCCCCCCCCCC(=O)O)NC(=O)[C@H]([C@@H](C)CC)NC1=O)C(c1ccccc1)c1ccccc1)[C@@H](C)O [Compound 509] (Isovaleryl-[X10]TH[Dip]PCIK([AEEA-AEEA-Dap-C18 diacid])[hLeu]; linker 6-C via X11)
2,14.3,CC[C@H](C)[C@@H]1NC(=O)[C@@H](NC(=O)[C@@H]2CCCN2C(=O)[C@@H](NC(=O)[C@H](Cc2ccncc2)NC(=O)[C@@H](NC(=O)[C@H](CCC(=O)OC)NC(=O)CC(C)C)[C@@H](C)O)C(c2ccccc2)c2ccccc2)CSSC[C@@H](C(N)=O)NC(=O)[C@@H](CCCCN)NC(=O)C[C@H](Cc2ccccc2)NC(=O)[C@H](CCCCNC(=O)COCCOCCNC(=O)COCCOCCNC(=O)[C@H](CN)NC(=O)CCCCCCCCCCCCCCCCC(=O)O)NC1=O [Compound 499]
3,31.3,CC[C@H](C)C1NC(=O)[C@@H](NC(=O)[C@@H]2CCCN2C(=O)[C@@H](NC(=O)[C@H](Cc2cnc[nH]2)NC(=O)[C@@H](NC(=O)[C@H](CCC(=O)OC)NC(=O)CC(C)C)[C@@H](C)O)C(c2ccccc2)c2ccccc2)SCSC[C@@H](C(N)=O)NC(=O)[C@@H](CCCCN)NC(=O)C2(Cc3ccccc3C2)NC(=O)[C@H](CCCCNC(=O)COCCOCCNC(=O)COCCOCCNC(=O)[C@H](CN)NC(=O)CCCCCCCCCCCCCCCCC(=O)O)NC1=O (some centres unmarked) [Compound 506] (Isovaleryl-E(OMe)TH[Dip]P[X9][ξIle]K([AEEA-AEEA-Dap-C18 diacid])[Aic][dK]C-NH2; thioether 6-11)
4,37.4,COC(=O)CC[C@H](NC(=O)CC(C)C)C(=O)N[C@H](C(=O)N[C@@H](Cc1cnc[nH]1)C(=O)N[C@H](C(=O)N1CCC[C@H]1C1CSSC[C@@H](C(N)=O)NC(=O)[C@@H](CCCCN)NC(=O)C[C@H](Cc2ccccc2)NC(=O)[C@H](CCCCNC(=O)COCCOCCNC(=O)COCCOCCNC(=O)[C@H](CN)NC(=O)CCCCCCCCCCCCCCCCC(=O)O)NC(=O)C2(CCCCC2)NC1=O)C(c1ccccc1)c1ccccc1)[C@@H](C)O (some centres unmarked) [Compound 512]

# Tested on: LAD2 cells
# Test: not given
# Assay type: cell-based, human
# Settings: LAD2 mast cells, β-hexosaminidase release, 30 minutes incubation; read-out: EC50: LAD2
# From the text: In anaphylactoid reactions, the main mechanism involves the direct stimulation of mast cells or basophils, leading to the release of anaphylactic mediators such as histamine and β-hexosaminidase. A recent study by McNeil et al. (McNeil B D et al., 2015) reported that MrgprX2, a specific membrane receptor on human mast cells, induces anaphylactoid reactions. The LAD2 (Laboratory of Allergic Diseases 2) human mast cell line, derived from human mast cell sarcoma/leukemia (Kirshenbaum et al., 2003), is commonly employed to study anaphylactoid reactions, because its biological properties are identical to those of primary human mast cells, including the overexpression of the MrgprX2 receptor and sensitivity towards degranulating peptides (Kulka et al., 2008). The release of anaphylactic mediators such as f-hexosaminidase, is assessed by fluorometric quantification.
# On the day of the assay, serial dilutions of compounds were added to LAD2 cells plated at 20000 cells/well in a 96-well plate. After incubation for 30 minutes, the amount of β-hexosaminidase released into the supernatants and in cell lysates was quantified using the fluorogenic substrate 4-methylumbelliferyl-N-acetyl-b-D-glucosaminide. Dose-response curves were generated by plotting the % of β-hexosaminidase release (y-axis) against the concentrations of peptides tested (x-axis). […]. (Table 2D).
row,Molecule,EC50 [nM]
1,Isovaleric Acid-E-T-H-[Dpa]-P-[Cys]-I-[Lys(2Peg11′_Palm)]-[bhPhe]-[Lys(2Peg20K)]-R-[Cys]-NH2 [Compound 47],> 12500
2,Isovaleric Acid-E-T-H-[Dpa]-P—C—I-[Lys(1PEG2_1PEG2_IsoGlu_C12_Diacid)]-[bhPhe]-[(D)Lys]-C—NH2 [Compound 234],> 100000
3,Isovaleric Acid-E-T-H—F—P—C—I-[Lys(Ahx_Palm)]-F-E-P—R—S—K-G-C—K—NH2 [Compound 223],700

# Source: patent US20230295259A1 (Protagonist Therapeutics, Inc., priority 2020, published 2023)
